Results published in paper PMC4147313.

Columns and labels:
[1] = target: formyl-peptide receptors (FPRs) of CHO-K1 cells (Chinese hamster (endogenous in CHO-K1))
[2] = target: formyl-peptide receptor (FPR) (human (endogenous in SKOV-3)) (UniProt P21462)
[3] = target: formyl-peptide receptor (FPR) (human (endogenous in SKOV-3)) (UniProt P21462); remark: listed apart in the source
[4] = target: formyl-peptide receptors (FPRs) of CHO-K1 cells (Chinese hamster (endogenous in CHO-K1)); remark: listed apart in the source

Sequence of UniProt P21462 (P21462 whole entry): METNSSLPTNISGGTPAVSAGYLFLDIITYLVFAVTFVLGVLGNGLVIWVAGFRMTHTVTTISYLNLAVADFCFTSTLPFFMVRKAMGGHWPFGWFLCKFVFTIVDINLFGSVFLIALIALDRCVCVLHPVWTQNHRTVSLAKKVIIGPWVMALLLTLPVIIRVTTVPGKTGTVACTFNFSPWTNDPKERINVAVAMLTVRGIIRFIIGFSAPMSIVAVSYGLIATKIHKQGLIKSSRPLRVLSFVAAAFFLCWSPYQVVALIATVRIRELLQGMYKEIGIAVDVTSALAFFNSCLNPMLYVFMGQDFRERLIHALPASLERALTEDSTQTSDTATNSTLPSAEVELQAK

Molecule: truncated uPAR lacking the D1 domain and exposing the 84-95 sequence (uPARD2D3) on CHO-K1 cells (domain or fragment)
- reduction by 10 nM RERF peptide of the Cell Index of CHO-K1/D2D3 cells invading matrigel toward serum (xCELLigence, after 18 hrs) (% reduction of Cell Index) [1]: 83

Molecule: urokinase receptor (uPAR) (from UniProt Q03405 23-305)
- reduction of migration of SKOV-3 cells toward 10% FBS by RERF peptide, 10 fM to 10 pM (35% at 10 fM, 60% at 10 pM) (% reduction of cell migration) [2]: 60
- reduction by 10 nM RERF peptide of the Cell Index of SKOV-3 cells invading matrigel toward serum (xCELLigence, 18 hrs); anti-uPAR84-95 polyclonal antibody reduced it by 50% (% reduction of Cell Index) [3]: 86

Molecule: wild type, full length uPAR (D1D2D3) on CHO-K1 cells (from UniProt Q03405 23-305) (receptor)
- reduction by 10 nM RERF peptide of the Cell Index of CHO-K1/D1D2D3 cells invading matrigel toward serum (xCELLigence, after 18 hrs) (% reduction of Cell Index) [1]: 75

Molecule: SRSRY [SRSRY peptide (uPAR 88-92, Ser-Arg-Ser-Arg-Tyr)]
- migration of wild type CHO-K1 cells toward 10 nM SRSRY (Boyden chamber, 4 hrs, 37°C), percent of basal (% of the basal cell migration) [4]: 177
